B1: rβhCG: recombinant β subunit expressed in mouse cells (Sigma) (protein, UniProt P0DN86 21-165, looked up)
Choriogonadotropin subunit …: SKEPLRPRCRPINATLAVEKEGCPVCITVNTTICAGYCPTMTRVLQGVLPALPQVVCNYRDVRFESIRLPGCPRGVNPVVSYAVALSCQCALCRRSTTDCGGPKDHPLTCDDPRFQDSSSSKAPPPSLPSPSRLPGPSDTPILPQ
B2: βhCG: purified native β subunit of hCG (Sigma) (protein, UniProt P0DN86 21-165, looked up)
Choriogonadotropin subunit …: SKEPLRPRCRPINATLAVEKEGCPVCITVNTTICAGYCPTMTRVLQGVLPALPQVVCNYRDVRFESIRLPGCPRGVNPVVSYAVALSCQCALCRRSTTDCGGPKDHPLTCDDPRFQDSSSSKAPPPSLPSPSRLPGPSDTPILPQ
modifications: native beta subunit only

What was measured:
HIV-1 = conditions: for HIV in vitro Inhibition: inhibition of HIV-1 replication in vitro (HIV-1 strains and HIV-1 primary isolates)
Source text: To prepare HIV infected cells for the in vitro assay of hCG preparations and β-hCG peptides and derivatives, primary PBMCs, macrophages, and CD4^+ T cells isolated from peripheral blood and the H9 human T cell line, were acutely or chronically infected with 8 different HIV-1 strains: 4 cell line adapted viruses, namely the macrophage tropic Ba-L strain (Gartner et al., 1986, Science 233:215-219) and the CD4^+ T cell tropic MN, RF, and IIIB strains (10^5 TCID50/ml) (Popovic et al., 1984, Science […]; Gallo et al.; 1984, Science 224:500-503); 2 isolates, Ju1083 and G3, from Nigerian AIDS patients passed once in a CD4^+ T cell line (Sub-T1); and 2 primary (“clinical”) isolates from AIDS patients from Trinidad which were never passed in any cell line and were used at a titer of 7.5×10^4TCID50/ml. In all experiments; HIV1 (10^5 TCID50/ml) was added to the cells(10^6 cells/ml) for a 2 hour incubation after which the virus infected cells were washed with 10 ml phosphate buffered saline (PBS) three times to eliminate extra cellular virus. The test inhibitor, i.e. the hCG or β-hCG peptide preparation was then added and the cells were incubated with the test inhibiter for 9 to 10 days with serial sampling. Cultures were assayed for p24 antigen on days 3 to 10.
Peptides of the α- and β-subunits (0.05 to 50 nmoles/ml), native α chain preparation, and various crude preparations of the native hCG heterodimer (0.01 to 1,000 IU) and the native β-hCG subunit (100 to 1,000 μg) were tested for effects on HIV-1 replication in acutely infected cells-by measuring change in viral antigen levels in response to the above noted preparations (FIGS. 4A-D and Table 3).
The fractions were then tested for anti-HIV, anti-KS and pro-hematopoietic activities in vitro. To assay for inhibition of HIV-1 replication in vitro, the HIV-1 […] viral strain was used to infect PBMCs and PM-1 cells (derived from the HUT-78 T-cell lymphoma cell line) at 10^3 TCID50/ml as described in detail herein.

[1] = system: HIV RNA and protein expression; experiment: HIV RNA and protein expression in HIV-1 transgenic mice; assay type: in vivo; conditions: inhibition of HIV RNA and protein expression in HIV-1 transgenic mice
Source text: (§1) The HIV-1 transgenic mice used for this study contain 7.4 kb of foreign DNA, including 5.1 kb of the HIV-1 proviral genome deleted in the gag and pol genes and 2.3 kb of vector (Dickie et al., 1991, Virology 185:109-119). […] In addition, these mice develop severe hyperkeratotic skin lesions with marked expression of gp 120 and nef genes (Kopp et al., 1993, AIDS Res. Hum. Retroviruses 9:267-275; Vasli et al., 1994, AIDS Res. Hum. Retroviruses 10:1241-1250).
Heterozygous transgenic mothers were treated with the hCG preparation subcutaneously twice weekly. Pups received hCG via the mother's milk.
Gene expression was assayed in total RNA extracted from the skin of Tg26 mice with RNAzol. One microgram of RNA was reverse transcribed into cDNA using random hexamer primers and […] reverse transcriptase (Life Technologies, MD) in a final volume of 30 μl. One tenth of the cDNA reactions were used for PCR amplification of various HIV gene sequences (env, tat, rev, nef and vif). In addition, glyceraldehyde 3-phosphate dehydrogenase (GAPHD) mRNA was amplified for each sample for normalization. […] Detection was performed by chemiluminescence (Amersham) and relative mRNA levels determined by densitometry after normalization with GAPDH mRNA levels. […]

KS Y-1 and KS-SLK cells = experiment: Kaposi's Sarcoma clonogenic assay in cultured cells; assay type: cell-based, human; conditions: for KS in vitro: inhibition of Kaposi's Sarcoma cell growth in vitro in cultured cells
Method: Briefly, the KS Y-1 cells were obtained from mononuclear cells isolated from pleural effusion of an AIDS patient with KS in the lungs. After the depletion of T lymphocytes, monocytes/macrophages and fibroblasts using monoclonal antibodies against CD2, CD3, CD4, CD8, CD10 and CD14 membrane antigens and baby rabbit complement, the cells were cultured in the absence of exogenous growth factors to select for transformed cells. […] Clonogenic assays were performed by seeding the KS Y-1 or KS-SLK cells in methylcellulose (0.8%, v/v), incubating the cells for 10 days in the presence or absence of the hCC, β-hCG or β-hCG peptide preparations and then counting the number of well-formed colonies of triplicate wells formed after seeding with 5×10^4 cells.
To assay for activity against Kaposi's sarcoma cell growth in vitro, the clonogenic assay described herein was used with the KS Y-1 and KS-SLK cultured Kaposi's Sarcoma cell lines,.

[2] = system: Kaposi's Sarcoma induced in mice; experiment: Kaposi's Sarcoma tumors induced in mice by KS Y-1 cells; assay type: in vivo; conditions: inhibition of Kaposi's Sarcoma induced in mice
Method: The effects of the peptides on KS tumor cells were also evaluated in vivo in the KS mouse model. To induce KS tumors in the mice, 1×10^6/ml KS Y-1 cells in 50 μl PBS or saline were injected subcutaneously into immunodeficient mice (beige-XID-BNX mice). […] Methods for detection of apoptosis (from tissue biopsies) were used, as described in Lunardi-Iskandar et al.(1995, Nature 375:64-68). Briefly, the samples were stained in situ for the presence of cells with DNA fragmentation. Tissue slides from formalin-fixed tumors were treated with terminal deoxynucleotide transferase for extension of DNA ends (hydroxyl 3′) and incorporation of digoxigenin-11-dUTP according to the manufacturer's instructions (Oncor, Gaithersburg, Md.). Anti-digoxigenin antibody conjugated with the enzyme peroxidase allowed detection of apoptotic cells, which stain brown, whereas viable cells stain blue.
Certain fractions were tested for activity in reducing Kaposi's Sarcoma lesions in the Kaposi's Sarcoma mouse model as described herein. In this assay, starting one week after injection of the KS Y-1 cells to induce Kaposi's sarcoma formation, the mice were injected subcutaneously with 100 IU hCG. […] After one week of the week of treatment with the hCG fractions, the KS lesions were examined for cell apoptosis and regression as described herein. […]

[3] = system: hematopoietic progenitor cells; experiment: Hematopoietic progenitor clonogenic assays (CFU-GEMM, BFU-e, CFU-GM); assay type: cell-based, human; conditions: for Pro-hematopoiesis in vitro Enhancement: relative increase of hematopoietic colony cell number, hCG preparations 200 IU/ml, subunits and peptides 100 μg/ml
Method: The effect of hCG preparations and peptides was assayed on hematopoietic progenitor cells in vitro: Hematopoietic progenitor cells (2×10^5 cell/ml) were isolated from normal bone marrow and cord blood and seeded in methylcellulose. […] The hCG preparations were administered at 200 IU/ml and the β- and α-subunits and peptides were administered at 100 μg/ml. The native commercial preparation of hCG (APL™, Wyeth Ayerst) was pre-tested for anti-HIV and anti-KS activities. Aggregates containing more than 50 cells after 10 days of culture were counted as colonies.

HIV-1 transgenic mice = experiment: Survival, growth and weight of HIV-1 transgenic mouse pups; assay type: in vivo; conditions: administered first 5 days after birth through mothers milk
Method: as §1
Finally, certain fractions were tested for their ability to increase survival, promote weight gain and reduce HIV-1 gene expression in HIV-1 transgenic mice as described herein.
HIV-I transgenic pups administered hCG and hCG-related preparations for the first 5 days after birth through the mothers milk were monitored for survival at 10 days after birth.

Row | Molecule | inhibition of HIV-1 infection/replication in vitro (in words) (HIV-1) | HIV in vitro Inhibition (HIV-1) | inhibition of HIV RNA and protein expression [1] | KS in vitro (KS Y-1 and KS-SLK cells) | KS in vivo [2] | Pro-hematopoiesis in vitro Enhancement [3] | survival at 10 days after birth (HIV-1 transgenic mice) | inhibition of KS cell growth in clonogenic assays (in words) (KS Y-1 and KS-SLK cells; KS Y-1 and KS SLK) | promotion of hematopoiesis (in words) ([3]; listed as native β-hCG) | promotion of hematopoiesis (in words) ([3]; listed as partially purified native β-chain)
1 | B1 | not to be active | − (“−” represents less than 10% effect) | − (“−” represents less than 10% effect) | − (“−” represents less than 10% effect) | − (“−” represents less than 10% effect) | − (“−” represents less than 10% effect) | failed to promote survival | – | – | –
2 | B2 | active | ++ (“++” represents greater than 40% effect) | ++ (“++” represents greater than 40% effect) | ++ (“++” represents greater than 40% effect) | ++ (“++” represents greater than 40% effect) | ++ (“++” represents greater than 40% effect) | promote survival | moderately well | pro-hematopoietic activity | directly promoted

From patent US6699834B1, “Method for treating cancer” (University of Maryland Biotechnology Institute, priority 1997, dated 2004)
